Experimental data reported in patent publication US11660961B2, “Host cells and methods for producing isopentenol from mevalonate” (The Regents of the University of California, priority 2015, dated 2023).

B1: NudB: phosphatase (Nudix hydrolase) from E. coli (protein, UniProt P0AFC0 1-150, looked up)
Dihydroneopterin triphosphate …: MKDKVYKRPVSILVVIYAQDTKRVLMLQRRDDPDFWQSVTGSVEEGETAPQAAMREVKEEVTIDVVAEQLTLIDCQRTVEFEIFSHLRHRYAPGVTRNTESWFCLALPHERQIVFTEHLAYKWLDAPAAAALTKSWSNRQAIEQFVINAA
B2: aphA: E. coli-endogenous phosphatase found to hydrolyze IP to isopentenol (protein, UniProt P0AE22 26-237, looked up)
Class B acid phosphatase: SSPSPLNPGTNVARLAEQAPIHWVSVAQIENSLAGRPPMAVGFDIDDTVLFSSPGFWRGKKTFSPESEDYLKNPVFWEKMNNGWDEFSIPKEVARQLIDMHVRRGDAIFFVTGRSPTKTETVSKTLADNFHIPATNMNPVIFAGDKPGQNTKSQWLQDKNIRIFYGDSDNDITAARDVGARGIRILRASNSTYKPLPQAGAFGEEVIVNSEY

Experiments:
E. coli = details: intracellular accumulation in pathway II strains
[1] = In vitro hydrolysis of IPP by purified Nudix hydrolase; type: biochemical; details: purified enzyme with IPP; up to 16 hours
Procedure: All metabolites are analyzed by liquid chromatography mass spectrometry (LC-MS; Agilent Technologies 1200 Series HPLC system and Agilent Technologies 6210 time-of-flight mass spectrometer) on a ZIC-HILIC column (150 mm length, 2.1-mm internal diameter, and 3.5-μm particle size). Standard chemicals (IPP and IP) are purchased from Sigma-Aldrich (USA). Metabolites are eluted isocratically with a mobile phase composition of 64% (v/v) acetonitrile containing 50 mM ammonium acetate with a flow rate of 0.15 mL/min. IPP and IP from E. coli extracts or enzyme assay are quantified via […] calibration curves ranging from 781.25 nM to 200 μM.

[2] = In vitro hydrolysis of IP to isopentenol (purified enzyme or cell lysates); type: biochemical; details: purified NudB or lysates of cells overexpressing the phosphatase
Procedure: To identify IP-hydrolyzing endogenous phosphatases, single gene knockout mutants of 36 phosphatases, of which substrates are mostly mono-phosphorylated metabolites, are retrieved from the Keio collection (Baba et al., 2006). 1 mL overnight cultures from each mutant are concentrated in 0.5 mL of 50 mM Tris-HCl (pH 8.0) buffer containing 1 mM DTT and ˜50 mg of glass beads (<100 μm, Sigma-Aldrich, USA). Cells are lysed by bead-beating for 2 min at 6.0 M/s (MP biomedicals Fast Prep, USA). After centrifugation of cell lysates at 20,000 g for 10 min, clear supernatant is used for assay reaction containing 0.5 mM isopentenyl monophosphate (IP). An equal volume of ethyl acetate is added to 100 μL of assay reaction after incubating overnight at 30° C., and isopentenol is extracted for 10 min by vigorous mixing.
Coding sequences of agp, aphA, and yqaB are amplified from BW25113 genome by PCR, and they are subsequently cloned to pBbE1a vector (Lee et al., 2011) for over-expression. Expression of these three genes are induced by addition of 0.5 mM IPTG to the cell cultures, and cell lysates of each sample are prepared with three biological replicates as described above for screening of the 36 mutants. 600 μL of assay reactions containing cell lysates, 1 mM DTT are prepared and the reaction is initiated by addition of 0.5 mM IP. […] Quantification of metabolites

E. coli BW25113 = test: Isopentenol production in E. coli; type: cell-based, Escherichia coli; details: expressed in IPP-bypass pathway II in E. coli
Procedure: E. coli BW25113 harboring two plasmids is used for isopentenol production. Seed cultures of all production strains are prepared by growing single colonies in LB medium containing 100 μg/mL ampicillin and 30 μg/mL chloramphenicol overnight at 37° C. with shaking at 200 rpm. The seed cultures are diluted in EZ-Rich defined medium (Teknova, USA) containing 10 g/L glucose (1%, w/v), 100 μg/mL ampicillin and 30 μg/mL chloramphenicol. The E. coli cell cultures are incubated in rotary shakers (200 rpm) at 37° C., and 0.5 mM IPTG is added to induce protein expression at OD600 of 0.6-0.8. To provide different levels of aeration, identical volumes of the cell culture are split into two flasks for incubation at 30° C. with shaking at either 200 rpm or 30 rpm.
For isopentenol quantification, 250 μL of cell culture is combined with 250 μL of ethyl acetate containing 1-butanol (30 mg/L) as an internal standard. This mixture of ethyl acetate and cell culture is vigorously shaken for 15 min and subsequently centrifuged at 13,000 g for 2 min to separate ethyl acetate from the aqueous phase. 100 μL of the ethyl acetate layer was diluted 5-fold, and 1 μL is analyzed by Agilent GCMS equipped with Cyclosil-B column (Agilent, USA) or Thermo GCFID equipped with DB-WAX column (Agilent, USA) for quantitation of isopentenol.

| Molecule | toxicity of accumulated metabolite to cells (E. coli) | IPP hydrolysis product [1] | hydrolysis of IP to isopentenol [2] | effect on in vivo isopentenol production (E. coli BW25113) |
| --- | --- | --- | --- | --- |
| C[C@@](O)(CCOP(=O)(O)O)CC(=O)O [MVAP, MVA monophosphate] | without any significant toxicity |  |  |  |
| B1 |  | produces only IP | do not show the activity of hydrolyzing IP to Isopentenol |  |
| B2 |  |  | significantly higher and faster hydrolysis activity on IP | does not significantly increase the isopentenol production |
